Measured values taken from the supplement of paper PMC10065799, “High-throughput profiling of sequence recognition by tyrosine kinases and SH2 domains using bacterial peptide display” (eLife, 2023).

Tests used:
Fyn = Fyn (UniProt P06241); test: phosphorylation enrichment, bacterial display (enrichment ratio); higher = better substrate or ligand; peptides without Tyr show the background
Fer (mouse) = test: as above
EPHB2 = EPHB2 (UniProt P29323); test: as above
Jak2 = Jak2 (UniProt O60674); test: as above
c-Src = test: as above
Hck = Hck (UniProt P08631); test: as above
EPHB1 = EPHB1 (UniProt P54762); test: as above
FGFR1 = FGFR1 (UniProt P11362); test: as above
MERTK = MERTK (UniProt Q12866); test: as above
Fes = Fes (UniProt P07332); test: as above
AncSZ = test: as above
FGFR3 = FGFR3 (UniProt P22607); test: as above
c-Abl (mouse) = test: as above
c-Src SH2 = test: SH2 binding enrichment of the phosphorylated peptide, bacterial display (enrichment ratio); higher = better substrate or ligand; peptides without Tyr show the background
Grb2 SH2 = Grb2 SH2 (UniProt P62993); test: as above
SHP2-C SH2 = test: as above
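Wherever SH2 binding enrichment of the phosphorylated peptide, bacterial display is given: peptide library displayed on the E. coli surface as eCPX fusions, selected cells deep-sequenced, score is each peptide's frequency after selection divided by its frequency in the input.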
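Wherever phosphorylation enrichment, bacterial display is given: 11-residue human phosphosite peptides and single-mutation variants displayed on the E. coli surface, counted by deep sequencing, each peptide's frequency after selection divided by its frequency in the unselected input library; frequency after pTyr selection over input frequency; kinase dosed for 20-30% of maximal phosphorylation in three min.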

Chain of Fes (P07332 whole entry, looked up): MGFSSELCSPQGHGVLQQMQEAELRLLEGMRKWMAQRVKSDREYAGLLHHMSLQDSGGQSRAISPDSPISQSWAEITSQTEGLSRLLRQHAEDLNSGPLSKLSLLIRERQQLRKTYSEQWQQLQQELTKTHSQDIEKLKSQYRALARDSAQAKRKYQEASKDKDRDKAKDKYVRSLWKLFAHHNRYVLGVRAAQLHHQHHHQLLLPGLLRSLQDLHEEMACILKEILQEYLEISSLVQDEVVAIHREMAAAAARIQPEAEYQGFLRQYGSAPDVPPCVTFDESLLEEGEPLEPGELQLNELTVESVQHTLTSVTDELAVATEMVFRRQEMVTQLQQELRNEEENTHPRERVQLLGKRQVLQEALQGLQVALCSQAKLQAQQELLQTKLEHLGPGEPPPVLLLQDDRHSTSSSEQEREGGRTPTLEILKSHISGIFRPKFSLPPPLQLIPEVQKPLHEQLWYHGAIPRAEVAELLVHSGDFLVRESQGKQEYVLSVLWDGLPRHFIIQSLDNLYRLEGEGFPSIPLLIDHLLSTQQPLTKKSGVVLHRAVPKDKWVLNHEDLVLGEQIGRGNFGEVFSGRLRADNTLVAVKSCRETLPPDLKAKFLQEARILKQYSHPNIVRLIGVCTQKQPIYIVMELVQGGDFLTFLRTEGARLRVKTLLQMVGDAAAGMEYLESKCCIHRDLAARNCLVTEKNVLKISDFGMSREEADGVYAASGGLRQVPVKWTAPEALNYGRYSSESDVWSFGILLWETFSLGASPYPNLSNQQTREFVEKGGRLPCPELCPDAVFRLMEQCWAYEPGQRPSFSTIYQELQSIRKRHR
Chain of MERTK (Q12866 whole entry, looked up): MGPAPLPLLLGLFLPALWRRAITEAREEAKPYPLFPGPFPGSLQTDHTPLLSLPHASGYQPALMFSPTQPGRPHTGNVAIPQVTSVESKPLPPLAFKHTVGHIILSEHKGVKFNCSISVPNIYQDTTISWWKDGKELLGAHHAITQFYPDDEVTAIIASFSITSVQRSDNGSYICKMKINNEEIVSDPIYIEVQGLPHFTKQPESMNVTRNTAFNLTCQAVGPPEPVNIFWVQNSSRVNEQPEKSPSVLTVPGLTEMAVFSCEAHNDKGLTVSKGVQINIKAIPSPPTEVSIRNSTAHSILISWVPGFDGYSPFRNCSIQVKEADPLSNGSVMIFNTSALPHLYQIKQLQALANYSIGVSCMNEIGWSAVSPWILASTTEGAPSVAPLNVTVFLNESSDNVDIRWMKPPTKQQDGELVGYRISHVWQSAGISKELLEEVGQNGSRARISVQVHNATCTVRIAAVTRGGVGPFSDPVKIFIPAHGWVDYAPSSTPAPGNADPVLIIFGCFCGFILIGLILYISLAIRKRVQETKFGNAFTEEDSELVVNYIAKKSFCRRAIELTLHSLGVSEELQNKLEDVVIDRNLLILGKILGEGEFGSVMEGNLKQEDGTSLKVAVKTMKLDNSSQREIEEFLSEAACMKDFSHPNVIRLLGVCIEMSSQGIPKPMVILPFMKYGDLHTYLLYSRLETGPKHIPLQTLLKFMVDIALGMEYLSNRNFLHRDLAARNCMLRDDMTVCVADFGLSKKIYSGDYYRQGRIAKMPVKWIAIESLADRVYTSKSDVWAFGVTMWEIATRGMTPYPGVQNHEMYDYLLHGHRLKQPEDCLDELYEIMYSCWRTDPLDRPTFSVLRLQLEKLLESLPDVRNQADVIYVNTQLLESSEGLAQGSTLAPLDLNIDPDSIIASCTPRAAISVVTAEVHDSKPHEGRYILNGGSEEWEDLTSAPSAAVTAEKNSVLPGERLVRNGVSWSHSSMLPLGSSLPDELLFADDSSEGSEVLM
Chain of Hck (P08631 whole entry, looked up): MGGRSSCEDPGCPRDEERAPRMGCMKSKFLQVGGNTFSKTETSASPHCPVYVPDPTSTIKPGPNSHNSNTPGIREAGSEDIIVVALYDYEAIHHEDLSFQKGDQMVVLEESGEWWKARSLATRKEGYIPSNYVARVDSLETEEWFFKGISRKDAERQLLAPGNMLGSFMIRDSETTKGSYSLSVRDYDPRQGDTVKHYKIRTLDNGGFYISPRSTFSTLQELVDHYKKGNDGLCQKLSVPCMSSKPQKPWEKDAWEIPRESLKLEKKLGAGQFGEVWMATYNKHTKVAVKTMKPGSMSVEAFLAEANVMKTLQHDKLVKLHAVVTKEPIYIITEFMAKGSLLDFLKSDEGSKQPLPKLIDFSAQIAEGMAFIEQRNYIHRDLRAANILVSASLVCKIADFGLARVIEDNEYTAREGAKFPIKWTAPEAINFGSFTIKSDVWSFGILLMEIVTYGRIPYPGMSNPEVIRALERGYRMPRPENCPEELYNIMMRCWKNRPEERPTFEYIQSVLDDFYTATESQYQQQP
Chain of EPHB1 (P54762 whole entry, looked up): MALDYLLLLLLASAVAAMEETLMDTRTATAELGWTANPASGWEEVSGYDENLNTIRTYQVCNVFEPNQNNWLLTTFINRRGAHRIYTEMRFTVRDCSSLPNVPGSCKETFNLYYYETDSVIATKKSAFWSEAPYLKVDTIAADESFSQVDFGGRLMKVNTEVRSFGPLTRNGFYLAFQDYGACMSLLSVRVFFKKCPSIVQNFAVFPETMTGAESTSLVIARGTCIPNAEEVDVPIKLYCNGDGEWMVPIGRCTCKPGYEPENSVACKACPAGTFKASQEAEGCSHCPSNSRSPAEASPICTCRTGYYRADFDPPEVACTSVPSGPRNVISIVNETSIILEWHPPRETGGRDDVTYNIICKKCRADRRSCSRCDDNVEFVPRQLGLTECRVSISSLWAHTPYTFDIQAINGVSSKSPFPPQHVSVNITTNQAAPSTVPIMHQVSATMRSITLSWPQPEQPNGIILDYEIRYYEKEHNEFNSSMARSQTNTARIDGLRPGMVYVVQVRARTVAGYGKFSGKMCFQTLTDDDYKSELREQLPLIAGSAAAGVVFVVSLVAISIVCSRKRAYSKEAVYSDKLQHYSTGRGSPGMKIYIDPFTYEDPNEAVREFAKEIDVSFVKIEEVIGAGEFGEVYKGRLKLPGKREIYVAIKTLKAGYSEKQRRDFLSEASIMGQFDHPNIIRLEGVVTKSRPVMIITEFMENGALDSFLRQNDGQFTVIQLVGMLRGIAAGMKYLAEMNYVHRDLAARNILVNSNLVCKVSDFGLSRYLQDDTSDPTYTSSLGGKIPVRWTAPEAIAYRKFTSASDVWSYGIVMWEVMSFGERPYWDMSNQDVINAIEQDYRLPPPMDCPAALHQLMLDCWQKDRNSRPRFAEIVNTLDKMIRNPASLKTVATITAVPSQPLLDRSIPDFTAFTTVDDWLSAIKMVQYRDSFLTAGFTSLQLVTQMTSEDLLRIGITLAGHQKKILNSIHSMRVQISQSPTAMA
Chain of Fyn (P06241 whole entry, looked up): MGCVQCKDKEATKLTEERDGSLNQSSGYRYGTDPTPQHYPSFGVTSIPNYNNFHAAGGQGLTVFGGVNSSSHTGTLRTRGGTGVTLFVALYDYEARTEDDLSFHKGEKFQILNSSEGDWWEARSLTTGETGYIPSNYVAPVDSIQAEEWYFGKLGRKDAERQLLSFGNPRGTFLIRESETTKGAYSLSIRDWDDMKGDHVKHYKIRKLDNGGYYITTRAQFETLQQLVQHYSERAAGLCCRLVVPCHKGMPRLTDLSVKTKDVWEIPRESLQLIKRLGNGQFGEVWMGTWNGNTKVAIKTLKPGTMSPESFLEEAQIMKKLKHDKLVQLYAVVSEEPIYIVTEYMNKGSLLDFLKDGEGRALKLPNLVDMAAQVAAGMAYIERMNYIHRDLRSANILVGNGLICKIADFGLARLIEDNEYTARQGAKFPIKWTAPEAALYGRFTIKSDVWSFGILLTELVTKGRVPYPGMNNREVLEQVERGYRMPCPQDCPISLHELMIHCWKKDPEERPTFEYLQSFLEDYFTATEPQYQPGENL
Chain of EPHB2 (P29323 whole entry, looked up): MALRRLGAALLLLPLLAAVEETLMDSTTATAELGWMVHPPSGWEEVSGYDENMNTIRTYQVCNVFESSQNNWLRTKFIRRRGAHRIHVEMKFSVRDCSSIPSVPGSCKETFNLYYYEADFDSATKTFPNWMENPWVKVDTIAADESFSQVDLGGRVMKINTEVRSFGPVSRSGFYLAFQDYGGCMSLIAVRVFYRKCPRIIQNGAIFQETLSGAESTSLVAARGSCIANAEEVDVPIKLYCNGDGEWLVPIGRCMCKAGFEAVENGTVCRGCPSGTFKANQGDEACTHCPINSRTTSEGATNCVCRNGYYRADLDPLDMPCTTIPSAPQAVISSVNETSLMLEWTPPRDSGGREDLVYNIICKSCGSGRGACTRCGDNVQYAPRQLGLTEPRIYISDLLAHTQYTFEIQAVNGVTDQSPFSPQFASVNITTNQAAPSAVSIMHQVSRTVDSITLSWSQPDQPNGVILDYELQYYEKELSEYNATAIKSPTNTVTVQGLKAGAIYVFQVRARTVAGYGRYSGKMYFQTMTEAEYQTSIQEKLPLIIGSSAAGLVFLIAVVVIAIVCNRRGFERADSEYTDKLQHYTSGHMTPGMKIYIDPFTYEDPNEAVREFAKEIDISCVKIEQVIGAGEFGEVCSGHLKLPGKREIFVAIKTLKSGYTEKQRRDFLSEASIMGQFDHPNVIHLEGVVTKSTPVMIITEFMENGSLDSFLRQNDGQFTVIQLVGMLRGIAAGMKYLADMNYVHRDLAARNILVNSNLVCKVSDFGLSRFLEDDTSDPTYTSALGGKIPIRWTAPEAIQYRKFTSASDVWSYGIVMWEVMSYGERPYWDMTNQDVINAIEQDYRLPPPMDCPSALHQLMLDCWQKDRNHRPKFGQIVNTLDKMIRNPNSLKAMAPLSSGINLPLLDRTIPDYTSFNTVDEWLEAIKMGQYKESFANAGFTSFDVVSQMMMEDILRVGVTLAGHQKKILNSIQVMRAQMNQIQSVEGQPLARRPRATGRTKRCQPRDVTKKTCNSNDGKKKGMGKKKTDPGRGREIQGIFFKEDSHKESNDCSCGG

| Sequence | phosphorylation enrichment (Fyn) | phosphorylation enrichment (Fer (mouse)) | phosphorylation enrichment (EPHB2) | phosphorylation enrichment (Jak2) | phosphorylation enrichment (c-Src) | phosphorylation enrichment (Hck) | phosphorylation enrichment (EPHB1) | phosphorylation enrichment (FGFR1) | phosphorylation enrichment (MERTK) | phosphorylation enrichment (Fes) | phosphorylation enrichment (AncSZ) | phosphorylation enrichment (FGFR3) | phosphorylation enrichment (c-Abl (mouse)) | SH2 binding enrichment (c-Src SH2) | SH2 binding enrichment (Grb2 SH2) | SH2 binding enrichment (SHP2-C SH2) |
| --- | --- | --- | --- | --- | --- | --- | --- | --- | --- | --- | --- | --- | --- | --- | --- | --- |
| DNLNNYVFQGQ [GRIN2A_Y978] | 0.593 | 0.514 | 1.17 | 1.01 | 0.598 | 0.392 | 1.77 | 0.703 | 0.657 | 1.06 | 1.21 | 0.789 | 0.815 | 0.438 | 0.819 | 0.617 |
| FISVGYVDDTQ [HLA-B_Y51] | 0.47 | 0.471 | 0.593 | 0.801 | 0.405 | 0.444 | 0.507 | 0.556 | 0.432 | 1.05 | 0.808 | 0.743 | 0.752 | 0.599 | 1 | 0.747 |
| CFTGKYTLPPG [HSPB1_Y142_R140G] | 0.595 | 0.521 | 0.649 | 0.908 | 0.429 | 0.519 | 0.562 | 0.447 | 0.767 | 1.25 | 1.09 | 0.75 | 0.833 | 0.585 | 0.592 | 0.377 |
| RLSARYFQGDL [PDK3_Y337_Y334S] | 0.399 | 0.312 | 0.342 | 0.718 | 0.469 | 0.362 | 0.393 | 0.436 | 0.41 | 0.684 | 0.563 | 0.492 | 0.649 | 0.46 | 0.77 | 1.01 |
| FDCGMYSHLQG [LGR4_Y848_YF] | 0.985 | 1.64 | 0.969 | 1.18 | 3.25 | 3.54 | 1.08 | 0.89 | 4.74 | 1.31 | 1.37 | 1 | 1.07 | 1.79 | 0.727 | 1 |
| QEALEYFMKQT [PIK3CA_Y1038_M1043T] | 1.93 | 1.82 | 1.64 | 3.01 | 1.6 | 1.05 | 1.31 | 1.67 | 0.813 | 3.76 | 3.3 | 2.76 | 1.85 | 0.41 | 0.584 | 0.685 |
| VECRVYAEDPY [PCCA_Y401] | 0.612 | 0.708 | 0.794 | 1.26 | 0.75 | 0.686 | 0.908 | 0.619 | 0.56 | 1.73 | 1.47 | 1.13 | 1.28 | 0.603 | 0.807 | 0.658 |
| KHCEDYVFSFN [DSC1_Y846_C848F_YF] | 0.472 | 0.562 | 0.739 | 1.04 | 1.75 | 0.499 | 0.776 | 1.82 | 0.471 | 1.21 | 1.75 | 1.84 | 0.791 | 0.55 | 0.941 | 0.817 |
| VERIGYDFIPT [CBS_Y308_G305R] | 0.529 | 0.417 | 0.461 | 0.611 | 0.434 | 0.571 | 0.544 | 0.56 | 0.521 | 0.801 | 0.759 | 0.605 | 0.593 | 3.49 | 0.934 | 0.686 |
| RGRSTCFWPRP [GAGE12J_Y9_Y9C_YF] | 0.693 | 0.786 | 0.733 | 1.19 | 0.867 | 0.635 | 0.782 | 1.05 | 0.796 | 0.772 | 0.71 | 0.928 | 1.04 | 0.571 | 0.595 | 0.353 |
| CCNHPYLINGA [CHD7_Y1256] | 0.57 | 0.419 | 0.495 | 0.641 | 2.72 | 0.519 | 0.352 | 0.443 | 0.461 | 0.851 | 0.651 | 0.552 | 0.538 | 0.541 | 0.804 | 0.704 |
| FYDANYDGKEY [MAPRE2_Y162] | 0.642 | 0.627 | 1.23 | 1.14 | 0.941 | 0.83 | 0.63 | 0.699 | 1.17 | 1.37 | 1.22 | 0.796 | 0.712 | 0.725 | 0.823 | 0.473 |
| VTVLDYEKIGK [SYT1_Y365_D366E] | 0.479 | 0.412 | 0.524 | 0.77 | 0.355 | 0.573 | 1.07 | 0.456 | 0.393 | 0.868 | 0.783 | 0.561 | 0.54 | 0.89 | 0.662 | 0.649 |
| SVMAEYGLFAA [VSX2_Y219_G223A_YF] | 5.82 | 0.664 | 0.578 | 0.734 | 4.95 | 2.76 | 0.484 | 0.505 | 0.396 | 0.845 | 0.822 | 0.564 | 0.675 | 0.462 | 0.881 | 0.627 |
| MHDKEYFSVHN [MET_Y1234_Y1230H_YF] | 0.53 | 0.497 | 0.619 | 0.921 | 0.487 | 0.494 | 0.554 | 1.4 | 0.449 | 0.741 | 0.954 | 0.969 | 0.737 | 0.683 | 1.12 | 0.834 |
| QDDYSYPSRQM [LDLR_Y847_G844D] | 1.46 | 1.66 | 7.79 | 1.74 | 1.02 | 1.02 | 3.54 | 2.04 | 1.13 | 2.17 | 13.3 | 1.66 | 4.49 | 1.06 | 0.93 | 0.564 |
| VSGIPYGQPKQ [NEU1_Y251] | 0.339 | 0.44 | 0.323 | 0.522 | 0.434 | 0.419 | 0.349 | 0.415 | 0.336 | 0.57 | 0.494 | 0.437 | 0.422 | 0.331 | 0.94 | 1.22 |
| LTGIAYSLPHW [SLC22A14_Y291] | 0.921 | 0.877 | 0.94 | 0.997 | 0.764 | 1.08 | 0.969 | 0.658 | 3.24 | 1.68 | 1.61 | 0.956 | 1.41 | 4.06 | 0.847 | 5.82 |
| QTEAPYRFIYM [PTPN11_Y511_Q510P] | 0.697 | 11 | 1.25 | 1.22 | 1.93 | 0.984 | 0.93 | 7.24 | 1.4 | 1.6 | 1.41 | 5.25 | 1.15 | 0.469 | 0.84 | 0.783 |
| LADKPYTFEYY [FXN_Y118_D122Y] | 1.77 | 0.833 | 0.719 | 1.25 | 2.68 | 0.707 | 0.782 | 1.08 | 0.52 | 1.08 | 1 | 0.969 | 0.802 | 1.28 | 1.19 | 0.899 |
| AGTILYHAHLD [ASS1_Y291] | 0.479 | 0.398 | 0.78 | 0.495 | 0.451 | 0.523 | 0.526 | 0.535 | 0.561 | 0.703 | 0.591 | 0.497 | 0.509 | 0.477 | 0.949 | 0.74 |
| TVQIMYGCDVG [HLA-A_Y123_I119V] | 0.575 | 0.611 | 0.773 | 0.955 | 0.47 | 0.567 | 0.676 | 0.539 | 0.444 | 1.22 | 0.945 | 0.917 | 0.737 | 0.545 | 0.861 | 0.553 |
| DLDTEYGSGYP [RNASEH2A_Y206_D205E] | 0.49 | 0.505 | 0.542 | 1.17 | 0.549 | 0.546 | 0.652 | 0.507 | 0.379 | 1.01 | 1.23 | 0.652 | 0.727 | 0.531 | 0.7 | 0.464 |
| MNKNAYHNVTA [ST3GAL6_Y306] | 0.519 | 0.379 | 0.341 | 0.443 | 0.331 | 0.46 | 0.686 | 0.499 | 0.404 | 0.52 | 0.524 | 0.451 | 0.465 | 2.14 | 3.88 | 0.51 |
| PELINYQQHNS [BTK_Y361_H362Q] | 0.829 | 0.742 | 0.821 | 1.52 | 0.969 | 1.25 | 0.79 | 0.763 | 0.988 | 1.38 | 1.1 | 0.79 | 1.22 | 0.491 | 0.753 | 0.732 |
| KGSLPYSLILD [PKD1L2_Y406_N407S] | 0.734 | 1.06 | 0.675 | 1.19 | 1.63 | 0.671 | 0.822 | 2.32 | 1.93 | 1.23 | 1.08 | 2.16 | 0.86 | 10.5 | 0.736 | 4.67 |
| ELQGTYTSLQQ [KIF3C_Y574_R571Q] | 2.63 | 0.592 | 0.862 | 0.867 | 3.34 | 1.74 | 0.638 | 0.63 | 0.641 | 0.995 | 0.984 | 0.595 | 0.768 | 1.9 | 0.827 | 1.63 |
| AWVARYIFKRL [LPCAT3_Y348] | 0.502 | 0.482 | 0.472 | 1 | 0.346 | 0.48 | 0.555 | 0.351 | 0.424 | 1.25 | 1.26 | 0.604 | 0.748 | 1 | 1.05 | 1.1 |
| ELANYYKLHHI [AK7_Y391] | 0.566 | 0.629 | 12.3 | 6.75 | 0.762 | 0.743 | 13.7 | 6.91 | 3.36 | 0.591 | 0.647 | 4.77 | 0.565 | 0.474 | 0.705 | 0.941 |
